Experimental data taken from patent US20240336900A1, “METHODS AND COMPOSITIONS RELATED TO MODIFIED METHYLTRANSFERASES AND ENGINEERED BIOSENSORS” (BOARD OF REGENTS, THE UNIVERSITY OF TEXAS SYSTEM, priority 2023, published 2024).
Numbering of substitutions follows the chain as printed. Names may count otherwise.

What was measured:
[1] = Sensitivity and selectivity of evolved RamR sensor variants; assay type: cell-based, Escherichia coli
Procedure: Cell culture (20 μl) bearing the sensor library was seeded into 5 ml fresh LB containing appropriate antibiotics, 100 μg ml-1 zeocin (Thermo Fisher, R25001) and 100 uM of norbelladine (for round two) and grown at 37° C. for 7 h. Following incubation, 0.5 μl of culture was diluted into 1 ml LB medium, from which 100 μl was further diluted into 900 μl LB medium. Three hundred microliters of this mixture was then plated across three LB agar plates (100 μL per plate) containing carbenicillin, chloramphenicol and 4NB dissolved in DMSO. Plates were incubated overnight at 37° C. The following day, the brightest colonies were picked and grown overnight in 1 ml LB medium containing appropriate antibiotics in a 96-deep-well plate sealed with an AeraSeal film at 37° C. A glycerol stock of cells containing pSELIS-RamR and pReg-RamR encoding the template RamR variant was also inoculated into 5 ml LB for overnight growth.
The following day, 20 μl of each culture was used to inoculate two separate wells in a new 96-deep-well plate containing 900 μl LB medium. Additionally, eight separate wells containing 1 ml LB medium were inoculated with 20 μl of the overnight culture expressing the parental RamR variant. After 2 h of growth at 37° C., the top half of the 96-well plate was induced with 100 μl LB medium containing 10 μl DMSO, whereas the bottom half of the plate was induced with 100 μl LB medium containing 4NB dissolved in 10 μl DMSO. The concentration of 4NB used for induction is typically the same concentration used in the LB agar plate for screening during that particular round of evolution. Cultures were grown for an additional 4 h at 37° C. and 250 r.p.m. and subsequently centrifuged (3,500 g, 4° C., 10 min). Supernatant was removed, and cell pellets were resuspended in 1 ml PBS. One hundred microliters of the cell resuspension for each condition was transferred to a 96-well microtiter plate, from which the fluorescence (excitation, 485 nm; emission, 509 nm) and absorbance (600 nm) were measured using the Tecan Infinite M1000 plate reader. Clones with the highest signal-to-noise ratio (generally the top 5-10% of the screened clones) were then sequenced and subcloned into a fresh pReg-RamR vector.
For sensor variant validation, the subcloned pReg-RamR vectors expressing the sensor variants were transformed into DH10B cells expressing Pramr-GFP. […]
Glycerol stocks (20% glycerol) of strains containing the plasmids of interest were inoculated into 1 ml LB medium and grown overnight at 37° C. […] The cell resuspension (100 μl) for each condition was transferred to a 96-well microtiter plate, from which the fluorescence (excitation, 485 nm; emission, 509 nm) and absorbance (600 nm) were measured using the Tecan Infinite M1000 plate reader.

[2] = Biosensor-linked O-methyltransferase activity assay; assay type: cell-based, Escherichia coli; conditions: single mutational designs; 25, 30, 37 °C; 100 uM, 1 mM norbelladine
Procedure: Nb4OMT was expressed with the P150-RBS (riboJ) promoter-RBS on the pReg-RamR plasmid backbone (no regulator present). Cells were co-transformed with both the 40MT plasmid and the 4NB reporter plasmid and plated on an LB agar plate containing appropriate antibiotics. Three individual colonies from each transformation were picked into LB and grown overnight. Resulting cultures were diluted 50-fold into 1 ml LB medium containing the indicated concentration of norbelladine in a 96-deep-well plate and were grown at the indicated temperature for 24 h. Subsequently, the fluorescence of cultures was measured in the same manner as previously described in Dose-response measurement above.

[3] = Steady state kinetics of purified Nb4OMT variants; assay type: biochemical
Procedure: Reactions for kinetics measurements were performed in triplicate for all enzyme variants. For each variant 1.5 ml reactions containing 3.5 nM of enzyme, 500 μM SAM, 2 mM CaCl2), and 15.625, 31.25, 62.5, 125, 250, or 500 μM norbelladine in PBS pH 7.5 were incubated at 37° C. for 4 hours. Every hour a 200 μl aliquot of each reaction was quenched by pipetting it into a 1.5 ml microcentrifuge tube with 20 μl of 2M HCl. The concentration of 4′-O-Methylnorbelladine was then determined using HPLC as described.
Kinetic data were fit in KinTek Explorer simulation and data fitting software v11 (Roy, 2018). The following minimal model was used as an input. Each line represents a step in the model and the forward reaction goes from left to right while the reverse reaction goes from right to left as written. • (1) E+S=ES • (2) ES=EP • (3) EP=E+P • (4) S=P2
3.5 nM enzyme and 15.625, 31.25, 62.5, 125, 250, and 500 M substrate. The output observable was defined as EP+P. Substrate oxidation was modeled in step (4) as irreversible with a best fit value from globally fitting data from all variants to derive k4=0.00547 min^−1.To get kout/Km and kcat: k−1, k−2, and k−3 were locked at 0 min-1 (irreversible reactions). k+3 was locked at 10,000 min-1 as to not limit the rate of turnover. k+1 and k+2 were used as variable parameters in the fitting. Under these conditions, k+2=kcat and k+1=kcat/Km. For estimates of 95% confidence intervals on kinetic parameters, confidence contour analysis was used with the FitSpace function in KinTek Explorer (Bhattacharya, 2015). Confidence contour plots are calculated by systematically varying a single rate constant and holding it fixed at a particular value while refitting the data, allowing other rate constants to float. The goodness of fit was scored by the resulting χ^2 value. The confidence interval is defined based on a threshold in χ^2 calculated from the F-distribution based on the number of data points and number of variable parameters to give the 95% confidence limits. For the data given in FIGS. 20A-20C, this threshold was 0.85 to estimate the upper and lower limits for each parameter. […] We then fit the data for these two variants to the model shown below, accounting for substrate inhibition.
As before, k+1 was allowed to float in the fitting to give kcat/Km, and k−1 was locked at 0 min^−1, k+2 was allowed to float in the fitting to give kcat, and k−2 was locked at 0 min^−1. k+3 was locked at 10,000 min^−1, and k−3 was locked at 0 min^−1. k+4 and k+6 were locked at 100 μM^−1 min^−1, and k−4 and k−6 were allowed to float in the fitting as linked parameters. k+5 was linked to k+1 and k−5 was locked at 0 min^−1. k−7 was locked at 0 min^−1, and k+7 was locked at 0.00547 min^−1.

[4] = Differential scanning fluorimetry; assay type: physicochemical
Procedure: Purified Nb4OMT variants in the concentration of 5 μM were prepared in 96-well low-profile PCR plates (ABgene, Thermo Scientific). 10×SYPRO® Orange (Molecular Probes) was added into each well and mixed prior to measurement in an RT-PCR machine (LightCycler 480, Roche). The protein melting experiments were carried out with a continuous temperature acquisition mode using 10 acquisitions per 1° C. in each cycle from 20° C. to 95° C. The melting curves of the Nb4OMT variants were monophasic and Tm values were derived using Boltzmann equation.

B1: 4NB1.2: RamR variant bearing two amino acid substitutions, K63T and L66M (protein)
chain: MVARPKSEDKKQALLEAATQAIAQSGIAASTAVIARNAGVAEGTLFRYFATKDELINTLYLHLTQDMCQSMIMELDRSITDAKMMTRFIWNSYISWGLNHPARHRAIRQLAVSEKLTKETEQRADDMFPELRDLCHRSVLMVFMSDEYRAFGDGLFLALAETTMDFAARDPARAGEYIALGFEAMWRALTREEQ
modifications: Description of sequence: Improved biosensor variant K63T, L66M
- selectivity for 4NB over norbelladine [1]: 20 fold

B2: 4NB2.1: evolved RamR biosensor variant, K63T, L66M, C134D and S137G (protein)
chain: B1 chain with C135D, S138G
modifications: Description of sequence: Improved biosensor variant K63T, L66M, C134D, S137G
- selectivity for 4NB over norbelladine [1]: over 80 fold
- sensitivity relative to the HPLC method [1]: approximately 10 fold
- limit of detection ([1]; 4NB): approximately 2.5 uM

B3: H17K: Nb4OMT variant with mutation H17K (protein)
chain: MGASIDDYSLVHKNILKSEDLLKYILETSAYPREHEQLKGLREVTEKHEWSSALVPADEGLFLSMLLKLMNAKRTIEIGVYTGYSLLTTALALPEDGKITAIDVNKSYYEIGLPFIQKAGVEHKINFIESEALPVLDQMLEEMKEEDLYDYAFVDADKSNYANYHERLVKLVRIGGAILYDNTLWYGSVAYPEYPGLHPEEEVARLSFRNLNTFLAADPRVEISQVSIGDGVTICRRLY
modifications: Description of sequence: Improved enzyme variant H17K
- fluorescent signal relative to the wild-type enzyme [2]: above wild-type in at least one tested condition

B4: A53R: Nb4OMT variant with substitution A53R, predicted without docking (protein)
chain: B3 chain with K17H, A53R
- fluorescent signal relative to the wild-type enzyme [2]: reduced activity under all tested conditions

B5: E36P/G40E/A53M mutant: Nb4OMT variant with mutations E36P, G40E and A53M (protein)
chain: B3 chain with K17H, E36P, G40E, A53M
- kcat ([3]; 3.5 nM enzyme, 500 μM SAM, 37° C., PBS pH 7.5): >2 s⁻¹
- Km ([3]; calculated by dividing kcat by kcat/Km): < 83 µM
- substrate inhibition ([3]; steady state kinetic data, highest norbelladine concentration): affected by substrate inhibition
- increase in Tm relative to the wild-type enzyme [4]: 5.6 °C
- Tm ([4]; 5 μM protein, SYPRO Orange): 58.4 °C

B6: V203E: Nb4OMT variant with mutation V203E (protein)
chain: B3 chain with K17H, V203E
modifications: Description of sequence: Improved enzyme variant V203E
- fluorescent signal relative to the wild-type enzyme [2]: above wild-type in at least one tested condition

B7: H17R: Nb4OMT variant with mutation H17R (protein)
chain: B3 chain with K17R
modifications: Description of sequence: Improved enzyme variant H17R Mutation
- fluorescent signal relative to the wild-type enzyme [2]: above wild-type in at least one tested condition

B8: E36P-G40E: Nb4OMT variant with mutations E36P and G40E (protein)
chain: B3 chain with K17H, E36P, G40E
modifications: Description of sequence: Improved enzyme variant E36P-G40E
- fluorescent signal relative to the wild-type enzyme [2]: above wild-type in at least one tested condition

B9: S159E: Nb4OMT variant with mutation S159E (protein)
chain: B3 chain with K17H, S159E
modifications: Description of sequence: Improved enzyme variant S159E
- fluorescent signal relative to the wild-type enzyme [2]: above wild-type in at least one tested condition
